Assay results published in patent US20250144228A1, “NANOBODY-DRUG ADDUCTS AND USES THEREOF” (priority 2022, published 2025).

Tests used:
MICA*008 = MICA*008 (Homo sapiens, UniProt Q29983, C59Y/G229S/K148E/K196E/M152V/Q274R/S238T/T236I/T47A/W233R); type: binding
[1] = target: T1, MICA-transfected B16F10 cells (Homo sapiens, UniProt Q29983); assay: Flow cytometry of transfected B16F10 melanoma cells; type: binding; conditions: biotinylated, streptavidin-PE
T1 construct: expressed in transfected cells; host or cells: B16F10 mouse melanoma cells
T1 sequence (Q29983 24-383): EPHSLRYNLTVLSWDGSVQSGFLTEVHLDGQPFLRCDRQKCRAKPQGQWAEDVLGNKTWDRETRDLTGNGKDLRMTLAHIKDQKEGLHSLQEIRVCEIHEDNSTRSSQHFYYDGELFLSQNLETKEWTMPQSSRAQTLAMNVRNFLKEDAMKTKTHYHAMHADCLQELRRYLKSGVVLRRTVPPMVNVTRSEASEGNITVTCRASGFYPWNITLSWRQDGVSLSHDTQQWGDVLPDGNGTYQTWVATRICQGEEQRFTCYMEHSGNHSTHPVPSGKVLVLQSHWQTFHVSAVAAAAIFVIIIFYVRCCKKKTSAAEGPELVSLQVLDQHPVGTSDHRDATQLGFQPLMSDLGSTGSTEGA
Text: (§1) FIGS. 17A-17E: Development of MHC class I polypeptide-related sequence A (MICA)-specific nanobodies. FIG. 17A: Comparison of amino acid sequences of 9 MICA-specific nanobodies that were identified and cloned into a pHen6 expression vector. FIG. 17B: Immunoblots showing specific binding of biotinylated A1 and H3 anti-MICA nanobody clones for purified MICA*009 antigen in whole cell lysate. FIG. 17C: Quantification of ELISA cross-competition assays to determine binding epitopes for anti-MICA nanobodies. A decrease in intensity measured at 450 nm as compared to a single nanobody alone is indicative of binding to the same epitope. Cross-competition is shown for A1 (left) and H3 (right) anti-MICA nanobody clones. FIG. 17D: Quantification of anti-MICA nanobody binding to MICA allelic products as determined by ELISA. A significant increase in intensity measured at 450 nm as compared to uncoated ELISA control is indicative of binding. FIG. 17E: Flow cytometry of B16F10 cells transfected with empty vector, MICA, or MHC class I polypeptide-related sequence B (MICB) using A1 and H3 anti-MICA nanobody clones.
(§2) To further assess whether the isolated anti-MICA VHH nanobodies would bind to MICA on the surface of cells, A1 and H3 nanobody clones were generated against soluble, recombinant MICA*009 and cell binding was assessed by flow cytometry. Binding was assessed using B16F10 melanoma cells transfected to express either MICA or MICB, or an empty vector (EV) as a negative control. Biotinylated A1 and H3 nanobodies were labeled with streptavidin-phycoerythrin (PE) and used for cytofluorimetry of transfected B16F10 cells.

[2] = target: T2, MICB-transfected B16F10 cells (Homo sapiens, UniProt Q29980); assay: as above; type: binding; conditions: biotinylated, streptavidin-PE
T2 construct: expressed in transfected cells; host or cells: B16F10 mouse melanoma cells
T2 sequence (Q29980 23-383): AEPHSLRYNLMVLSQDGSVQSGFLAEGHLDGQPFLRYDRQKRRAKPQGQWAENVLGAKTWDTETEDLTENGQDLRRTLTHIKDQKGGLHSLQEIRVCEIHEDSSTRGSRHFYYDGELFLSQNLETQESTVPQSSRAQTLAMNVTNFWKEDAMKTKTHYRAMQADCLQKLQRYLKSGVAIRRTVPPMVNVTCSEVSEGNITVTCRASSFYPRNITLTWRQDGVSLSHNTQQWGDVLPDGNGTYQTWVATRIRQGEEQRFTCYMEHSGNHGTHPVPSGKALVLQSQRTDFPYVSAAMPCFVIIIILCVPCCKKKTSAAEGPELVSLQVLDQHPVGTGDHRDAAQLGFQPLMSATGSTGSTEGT
Text: as §1, §2

[3] = test system: purified MICA*009 antigen in whole cell lysate; assay: Immunoblot with biotinylated anti-MICA nanobodies; type: binding, human; conditions: 1 μg/mL, streptavidin-HRP
MICA*002 = MICA*002 (Homo sapiens, UniProt Q29983, K148E/T47A/W37G); type: binding
MICA*009 = type: binding, human
[4] = test system: empty vector (EV)-transfected B16F10 cells; type: binding; conditions: biotinylated, streptavidin-PE
[5] = target: influenza A hemagglutinin
[6] = test system: PfMSP-1 subunits, full length p190 pro-peptide; type: binding, Plasmodium falciparum
Experimental: (§3) FIG. 13A: Schematic of the PfMSP-1 pro-peptide and the four inclusive subunits: p83, p30, p38, and p42. FIG. 13B: Purified anti-p84 B4, anti-p38 B8, anti-p42 A6, and anti-p42 G11 VHHs were biotinylated and these VHHs were incubated with plate bound subunits proteins as indicated. Binding ELISA was detected by using streptavidin-HRP and tetramethylbenzidine (TMB). Data are represented as optical density (OD). Error bars show SEM. FIG. 13C: Western blot of VHHs against the three PfMSP-1 subunits, the full length p190 pro-peptide, and some 3D7 lysates from −38-44 hour 3D7 schizonts. FIG. 13D: Flow cytometry on synchronized ˜38-44 hour 3D7 schizonts using fluorescently (Cy5) labeled VHHs.
(§4) Purified VHH nanobodies were biotinylated and tested for specificity toward isolated MSP-1 subunits. Anti-p83 B4, anti-p38 B8, anti-p42 A6, and anti-p42 G11 VHHs were each incubated with plate-bound p83, p38, p42, and p42, and binding to the plates was detected by an enzyme-linked immunoassay (ELISA) using streptavidin-horseradish peroxidase (HRP) and tetramethylbenzidine (TMB). […] Finally, purified VHHs were tested against live ˜38-44 hour 3D7 schizonts in a flow cytometry assay.

[7] = test system: P. falciparum merozoite surface protein 1 (MSP-1) subunits p83, p38, p42; assay: ELISA of biotinylated VHHs on plate-bound MSP-1 subunits; type: binding, Plasmodium falciparum; conditions: streptavidin-HRP and TMB
Experimental: as §3, with “FIGS. 13A-13D: VHH nanobodies bind specifically to Plasmodium falciparum: merozoite surface protein 1 (MSP-1). FIG. 13A:” for “FIG. 13A:”
as §4

MICA*008, sequence (Q29983 24-307 T47A/C59Y/K148E/M152V/K196E/G229S/W233R/T236I/S238T/Q274R): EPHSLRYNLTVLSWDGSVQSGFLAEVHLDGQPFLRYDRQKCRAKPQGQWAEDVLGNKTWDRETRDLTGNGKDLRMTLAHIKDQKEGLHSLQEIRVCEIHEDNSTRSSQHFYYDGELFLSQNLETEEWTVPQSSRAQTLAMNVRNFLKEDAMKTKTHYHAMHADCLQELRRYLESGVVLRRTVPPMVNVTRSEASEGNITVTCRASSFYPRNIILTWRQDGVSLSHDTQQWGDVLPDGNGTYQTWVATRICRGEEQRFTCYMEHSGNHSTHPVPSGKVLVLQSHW
MICA*002, sequence (Q29983 24-307 W37G/T47A/K148E): as the sequence (Q29983 24-307 T47A/C59Y/K148E/M152V/K196E/G229S/W233R/T236I/S238T/Q274R) above, with W14G, Y36C, V129M, E173K, S206G, R210W, I213T, T215S, R251Q counted along it

B1: H3: VHH specific for MICA, SEQ ID NO: 24 (protein)
VHH: MAQVQLVETGGGLVQAGGSLRLSCAASGRTFSSYAMGWFRQAPGKEREFVAGISWSGGSTYYGDSVKGRFTISRDNAKNTVYLLMNSLKPEDTAVYYCAADLVRSYGSSWPSLFQFRNPEDVQDGMDYWGKGTLVTVSSGGLPETGGHHHHHH
MICA*008
  binding to MICA variant (ELISA): observed to bind
[1]
  staining of transfected cells: robust staining
[2]
  staining of transfected cells: neither nanobody clone stained
[3]
  luminescent signal on immunoblots: strong and specific luminescent signal
MICA*002
  binding to MICA variant (ELISA): not observed to bind
MICA*009
  binding to MICA variant (ELISA): observed to bind
[4]
  staining of transfected cells: neither nanobody clone stained

B2: B11: VHH specific for MICA, SEQ ID NO: 20 (protein)
VHH: MAQVQLVETGGGLVQPGGSLRLSCAASGFTLDYYAIGWFRQAPGKEREGVSCITSDGNTYYADSVKGRFTISRDNAKNTVYLQMNSLKPEDTAVYYCAADCLSSTWRTNAYLGQGTQVTVSSGGLPETGGHHHHHH
MICA*008
  binding to MICA variant (ELISA): observed to bind
MICA*002
  binding to MICA variant (ELISA): not observed to bind
MICA*009
  binding to MICA variant (ELISA): observed to bind

B3: E9: VHH specific for MICA, SEQ ID NO: 23 (protein)
VHH: MAQVQLVETGGGLVQPGGSLRLSCAASGFTLEHYAIGWFRQAPGKEQEGVSCITSDGDTYYADSVKGRFTISRDNAKNTVYLQMNSLKPEDTAVYYCAADCLSSNWRTSAYWAQGTQVTVSSGGLPETGGHHHHHH
MICA*008
  binding to MICA variant (ELISA): observed to bind
MICA*002
  binding to MICA variant (ELISA): not observed to bind
MICA*009
  binding to MICA variant (ELISA): observed to bind

B4: genetically fused VHHkappa-SD36: VHHkappa N-terminally linked to SD36 by (GGGGS)3 linker, SEQ ID NO: 5 (protein)
chain: QVQLVESGGGWVQPGGSLRLSCAASGFTFSDTAMMWVRQAPGKGREWVAAIDTGGGYTYYADSVKGRFTISRDNAKNTLYLQMNSLKPEDTARYYCAKTYSGNYYSNYTVANYGTTGRGTLVTVSSAAAGGGGSGGGGSGGGGSEVQLVESGGGLVQAGGSLKLSCAASGRTYAMGWFRQAPGKEREFVAHINALGTRTYYSDSVKGRFTISRDNAKNTEYLEMNNLKPEDTAVYYCTAQGQWRAAPVAVAAEYEFWGQGTQVTVSSGGLPETGGHHHHHH
[5]
  affinity for influenza A hemagglutinin, in words: low nanomolar

B5: anti-p42 A6: VHH specific for P. falciparum MSP-1 p42, SEQ ID NO: 7 (protein)
VHH: QVQLVESGGGLVQAGGSLRLSCAASARTFSYYGAAWFRQAPGKEREFVAAVSWNGDDTYYADSVKGRFTISRDNTKNTVSLQMNALKPEDTAVYYCEAAAYGRDWRQSANYVYWGQGTQVTVSSLPETGGHHHHHH
[6]
  binding to MSP-1 subunits and pro-peptide p190 (gel electrophoresis / Western blot): bind to one subunit of MSP-1 and to the MSP-1 pro-peptide (p190), but not to any other subunit
[7]
  binding to plate-bound MSP-1 subunits (ELISA): bind specifically to one subunit

B6: A1: VHH specific for MICA, SEQ ID NO: 19 (protein)
VHH: MAQVQLVESGGGLVQPGGSLRLSCAASGFTLDYYDIGWFRQAPGKEREGVSCITSSDGSTYYADSVKGRFTISRDNAKNTVYLQMNSLKPEDTAVYYCAADCTKPQWKSKTEAWGQGTQVTVSSGGLPETGGHHHHHH
MICA*008
  binding to MICA variant (ELISA): observed to bind
[1]
  staining of transfected cells: robust staining
[2]
  staining of transfected cells: neither nanobody clone stained
[3]
  luminescent signal on immunoblots: strong and specific luminescent signal
MICA*002
  binding to MICA variant (ELISA): not observed to bind
MICA*009
  binding to MICA variant (ELISA): observed to bind
[4]
  staining of transfected cells: neither nanobody clone stained

B7: VHHkappa-SD36 conjugated through click chemistry: SD36-azide conjugated to VHHkappa-DBCO through copper-free click reaction (protein)
VHH 1: QVQLVESGGGWVQPGGSLRLSCAASGFTFSDTAMMWVRQAPGKGREWVAAIDTGGGYTYYADSVKGRFTISRDNAKNTLYLQMNSLKPEDTARYYCAKTYSGNYYSNYTVANYGTTGRGTLVTVSSGG
VHH 2: EVQLVESGGGLVQAGGSLKLSCAASGRTYAMGWFRQAPGKEREFVAHINALGTRTYYSDSVKGRFTISRDNAKNTEYLEMNNLKPEDTAVYYCTAQGQWRAAPVAVAAEYEFWGQGTQVTVSSGG
[5]
  affinity for influenza A hemagglutinin, in words: low nanomolar
  affinity relative to genetically conjugated VHHkappa-SD36: higher affinity

B8: anti-p42 G11: VHH specific for P. falciparum MSP-1 p42, SEQ ID NO: 16 (protein)
VHH: QVQLVETGGGLVQAGGSLRLSCVVSGRSLILYGMGWFRQAPGKEREFVAGIVWNGGWTYYADSVKGRFTISRDTAKNTVYLQMNSLKPEDTAVYSCAAGPGDGRRRVAPAEYNYWGQGTQVTVSSLPETGGHHHHHH
[6]
  binding to MSP-1 subunits and pro-peptide p190 (gel electrophoresis / Western blot): bind to one subunit of MSP-1 and to the MSP-1 pro-peptide (p190), but not to any other subunit
[7]
  binding to plate-bound MSP-1 subunits (ELISA): bind specifically to one subunit
